Several values for one entry are separate records, joined by “and”; a condition that tells them apart may be missing. Equal values may be shown once.
Columns and labels:
PD-L1 in hPD-L1 cells = target: T1, PD-L1 in hPD-L1 cells (Homo sapiens, UniProt Q9NZQ7); assay: In vitro binding of [64Cu]WL12 to hPD-L1 and CHO cells; type: cell-based; conditions: compared with WL12
T1 construct: expressed in transfected cells; grown as tumours in NSG mice for the in vivo units
Procedure: 1.4.9. […] After incubation, cells were washed three times with cold PBS prior to counting on an automated gamma counter (1282 Compugamma CS, Pharmacia/LKBNuclear, Inc., Gaithersburg, Md.). […] Mean fluorescence intensity values were correlated with % incubated dose (% ID) uptake. All the cell uptake studies were performed in triplicate for each cell line and repeated three times.

PD-L1 in hPD-L1 tumors = target: T2, PD-L1 in hPD-L1 tumors (Homo sapiens, UniProt Q9NZQ7); assay: Tumor PD-L1 engagement by AtzMab measured with [64Cu]WL12, hPD-L1/CHO tumors; type: in vivo, mouse; conditions: AtzMab 20 mg/kg 24 h prior to tracer
T2 construct: expressed in transfected cells; grown as tumours in NSG mice for the in vivo units
T2 sequence (Q9NZQ7 19-290): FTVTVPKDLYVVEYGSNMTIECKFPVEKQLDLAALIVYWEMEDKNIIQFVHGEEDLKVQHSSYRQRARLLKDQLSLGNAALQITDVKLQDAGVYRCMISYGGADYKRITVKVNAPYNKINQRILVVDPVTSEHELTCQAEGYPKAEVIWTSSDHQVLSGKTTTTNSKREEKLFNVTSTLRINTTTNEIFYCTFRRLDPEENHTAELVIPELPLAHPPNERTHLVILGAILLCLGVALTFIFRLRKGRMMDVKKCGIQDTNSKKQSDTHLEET
Description: 2.1.3.3 PD-L1 therapeutic antibody accumulation in the tumors by PD-L1 PET: While evaluating the specificity of WL12 for PD-L1, it was discovered that WL12 competes with AtzMab to the same binding site on PD-L1. This provides a novel and previously unanticipated means to evaluate AtzMab therapy at tumor sites, where it is needed, using PD-L1-directed PET. Improved understanding of the distribution of PD-L1 antibodies in tumors may impact clinical antibody dosing and therapeutic monitoring. Therefore, the ability of [^64Cu]WL12-PET to assess AtzMab binding to PD-L1 within tumors was tested. Accumulation of radioactivity in hPD-L1 tumors was reduced by 80% in mice injected with AtzMab (20 mg/kg) as quantified by [^64Cu]WL12-PET and biodistribution studies (FIG. 21A, FIG. 21B, and FIG. 21C). […] The applicability of this approach was extended to cancer cell lines with native increase in PD-L1 expression.
To assess the effect of a single dose of AtzMab on targeting different PD-L1 levels in the tumors, PET and biodistribution studies were performed in tumors derived from the CHO-hPDL1 cell line, which has four- to ten-fold higher PD-L1 expression than NSCLC cells (FIG. 36). […] Those observations were confirmed by strong and week immunoreactivity observed in hPD-L1 and CHO tumors, respectively (FIG. 35I).

PD-L1 in H226 xenografts = target: T3, PD-L1 in H226 xenografts (Homo sapiens, UniProt Q9NZQ7); assay: Tumor PD-L1 engagement by AtzMab measured with [64Cu]WL12, H226 xenografts; type: in vivo; conditions: AtzMab 20 mg/kg for 24 h, vs saline controls
T3 construct: Each of which naturally expresses PD-L1; endogenous in cells; host or cells: HCC827 and H226 NSCLC cells; as xenografts in NOD scid gamma mice for the in vivo units
T3 sequence (Q9NZQ7 19-290): as above
Description: (§1) 3.3.2 Quantifying Tumor PD-L1 engagement by AtzMab. To evaluate PD-L1 engagement by the therapeutic mAbs at the tumor non-invasively in vivo, NSCLC xenograft models were studied. Those models were selected because nearly 50% of NSCLCs are PD-L1-positive and PD-L1 IHC is used as a predictive biomarker in patients with NSCLC undergoing immune checkpoint therapy (Mansfield, et al., 2016). […] There is a clear reduction in the accumulation of radioactivity in tumors of AtzMab-treated mice, indicating reduced levels of available PD-L1 sites, compared to treated controls (FIG. 35A and FIG. 35B). […] PD-L1 expression levels were confirmed by PD-L1 IHC of the xenografts (FIG. 35C and FIG. 35F).

[1] = target: T4, PD-L1 in HCC827 xenografts (Homo sapiens, UniProt Q9NZQ7); assay: Tumor PD-L1 engagement by AtzMab measured with [64Cu]WL12, HCC827 xenografts; type: in vivo; conditions: AtzMab 20 mg/kg for 24 h, vs saline controls
T4 construct: Each of which naturally expresses PD-L1; endogenous in cells; host or cells: HCC827 and H226 NSCLC cells; as xenografts in NOD scid gamma mice for the in vivo units
T4 sequence (Q9NZQ7 19-290): as above
Description: as §1

[2] = target: T5, PD-L1 in A549-iPDL1 tumors (Homo sapiens, UniProt Q9NZQ7); assay: [64Cu]WL12 PET and biodistribution in A549-iPDL1 and A549 xenografts; type: in vivo; conditions: AtzMab 20 mg/kg
T5 construct: expressed in transfected cells; host or cells: A549 NSCLC cells, lentiviral pINDUCER20, G418-selected, doxycycline-induced; as xenografts for the in vivo unit
T5 sequence (Q9NZQ7 19-290): as above
Description: To do so, an A549 NSCLC cell line with doxycycline-inducible PD-L1 expression (A549-iPD-L1) was generated. A549 is a Kras G12S lung adenocarcinoma cell line that expresses low PD-L1 at baseline. It has been transduced with PD-L1 in the all-in-one lentivirus pINDUCER20 vector (Meerbrey, et al., 2011), selected with G418, confirmed for PD-L1 induction by flow cytometry (FIG. 37A) and used for in vitro and in vivo studies. Cy5-PD-L1-mAbs binding to doxycycline-treated A549-iPDL1 cells was blocked by WL12 validating the specificity of WL12 (FIG. 37B). […] Accordingly, it is expected that PET will play a key role in quantifying dynamic changes in PD-L1 expression within the standard clinical work flow, providing a novel way to inform therapy decisions.

PD-L1 in MDAMB231 tumors = target: T6, PD-L1 in MDAMB231 tumors (Homo sapiens, UniProt Q9NZQ7); assay: Effect of AtzMab dose on tumor PD-L1 occupancy, inhibitory sigmoidal Emax model of [64Cu]WL12 % ID/g; type: in vivo
T6 construct: MDAMB231 breast cancer cells, which naturally express PD-L1; endogenous in cells; host or cells: MDAMB231 (ATCC); as xenografts in NSG mice for the in vivo units
T6 sequence (Q9NZQ7 19-290): as above
Procedure: To evaluate the effect of dose on tumor PD-L1 occupancy at the tumor, mice bearing MDAMB231 tumors were injected with escalating doses of AtzMab from 0.009 to 24 mg/kg body weight. […] At the 0.6 and 3.2 mg/kg dose, there was a proportionate decrease in signal intensity in the tumors indicating—for the 3.2 mg/kg dose—a near 100% target engagement at the tumor by the antibody.
The accumulated radioactivity (% ID/g) in the tumors was then used to fit an inhibitory sigmoidal E. model.

[3] = target: T7, PD-L1 in HCC827, H226, hPD-L1 and MDAMB231 cells (Homo sapiens, UniProt Q9NZQ7); assay: [64Cu]WL12 binding to PD-L1-positive cells in the presence of 60 nM mAbs; type: cell-based; conditions: 60 nM mAb vs PBS control
T7 construct: Each of which naturally expresses PD-L1; endogenous in cells; host or cells: HCC827, H226, MDAMB231 (endogenous) and CHO-hPD-L1 (stably transfected)
T7 sequence (Q9NZQ7 19-290): as above
Procedure: Non-interacting residues are shown in gray. […] Mean fluorescence intensities were determined by flow cytometry.
HCC827 and H226 non-small cell lung cancer (NSCLC) cells also were tested.

human PD-L1 = human PD-L1 (Homo sapiens, UniProt Q9NZQ7); conditions: read-out: dissociation constant (Kd), human PD-L1; cited from earlier work
Chain of human PD-L1 (Q9NZQ7 19-290): as above

mouse PD-L1 = mouse PD-L1 (Mus musculus, UniProt Q9EP73); conditions: read-out: dissociation constant (Kd), mouse PD-L1; cited from earlier work
Chain of mouse PD-L1 (Q9EP73 19-290): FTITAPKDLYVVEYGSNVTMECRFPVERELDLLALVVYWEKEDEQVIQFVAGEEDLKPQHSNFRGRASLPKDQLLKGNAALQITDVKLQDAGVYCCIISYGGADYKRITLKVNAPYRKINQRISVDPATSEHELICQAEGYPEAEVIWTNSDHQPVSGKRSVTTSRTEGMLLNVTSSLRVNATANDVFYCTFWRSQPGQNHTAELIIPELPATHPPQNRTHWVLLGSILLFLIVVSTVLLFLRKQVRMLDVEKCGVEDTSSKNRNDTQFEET

[4] = Stroh, et al., 2017; cited from earlier work

T1 sequence (Q9NZQ7 19-290): as the sequence (Q9NZQ7 19-290) above

AtzMab: therapeutic PD-L1 antibody Atezolizumab
potency at inhibiting [64Cu]WL12 binding (PD-L1 in hPD-L1 cells): more potent than WL12
reduction of [64Cu]WL12 accumulation in hPD-L1 tumors (PD-L1 in hPD-L1 tumors): 80% and 77%
reduction in [64Cu]WL12 % ID/g, H226 xenografts (PD-L1 in H226 xenografts): 34%
reduction in [64Cu]WL12 % ID/g, HCC827 xenografts [1]: 47%
decrease of [64Cu]WL12 uptake in A549-iPDL1 tumors [2]: > 75%
ID90 (PD-L1 in MDAMB231 tumors; 90% of Imax): 0.87 mg/kg
ID96 (PD-L1 in MDAMB231 tumors; 96% of Imax): 1.19 mg/kg
ID50, dose for 50% of the maximum PD-L1 engagement in the tumor (PD-L1 in MDAMB231 tumors; MDAMB231 tumors, 24 h after dose): 0.43 mg/kg and 0.43 (10%) mg/kg
expected average plasma concentration (PD-L1 in MDAMB231 tumors; at ID50, assuming Vss 50 mL/kg): 59 nM and 8.6 mcg/mL
expected average plasma concentration (PD-L1 in MDAMB231 tumors; at ID90, assuming Vss 50 mL/kg): 120 nM and 17.4 mcg/mL
expected average plasma concentration (PD-L1 in MDAMB231 tumors; at ID96, assuming Vss 50 mL/kg): 164 nM and 23.8 mcg/mL
Imax (PD-L1 in MDAMB231 tumors; maximum fractional decrease in free PD-L1 ligands, mean (% RSE)): 0.57 (3%)
Hill coefficient (PD-L1 in MDAMB231 tumors; mean (% RSE)): 3.12 (19%)
Residual error (PD-L1 in MDAMB231 tumors; mean (% RSE)): 0.44 (14%) % ID/g
Baseline free PD-L1 ligands (PD-L1 in MDAMB231 tumors; mean parameter value (% relative standard error)): 5.91 (1%) % ID/g
[64Cu]WL12 accumulation in tumors vs antibody dose (PD-L1 in MDAMB231 tumors; various doses, 24 h prior, biodistribution 2 h after tracer): reduced with increasing antibody dose
[64Cu]WL12 binding to PD-L1-positive cells [3]: inhibited
Kd (human PD-L1): 0.43 nM
Kd (mouse PD-L1): 0.13 nM
linearity of pharmacokinetics [4]: non-linear PK below 0.6-1 mg/kg and linear PK above 1 mg/kg dose

From patent US11607466B2, “Tumor and immune cell imaging based on PD-L1 expression” (The Johns Hopkins University, priority 2016, dated 2023)
